Measurements reported in the DeepSol protein solubility set.

Assay: soluble on expression in E. coli; label from the status in PepcDB or PDB records

Sequence | soluble on expression in E. coli
MKTVMLMLTSLLMAGCSVLGKREAAEPPYELLKHDGAFEVRRYGPMVIAETILDEKSYSAASGKGFNRLAGYIFGKNRSKTSISMTAPVLQERSSEKISMTAPVLQQPQKGGWSMAFVLPEGFTLQSAPEPLDPEVKLRELPPSTIAVVTFSGLHSAANLEKYSRQLQAWLKKQGYRALSEPKLASYDPPWTIPFLRRNEVQIRIEPDHGESGKELEHHHHHH | soluble
NSAHQFHNQQEGEHYILAGYPWFKCRARDMFISLPGLTLALEEVDQFEDVMKTAEKAIRSFINDEPAGYKIYEMEHPDVLLWAVWALQQYAKETSREQCRQKYGELLKDIIEFIRQRKHENLFLHENGLLYANGTDKAITWMNSTVNGHPVIPRTGYIVEFNALWYNALRFVADLVREDGNVLLADALDAQAEVTGKSFIEVFRNEYGYLLDYVDGNMMDWSVRPNMIFAVAFDYSPLDRAQKKQVLDIATKELLTPKGLRTLSPKSGGYNPNYVGPQIQRDYAYHQGTAWPWLMGFYMEAYLRIYKMSGLSFIERQLIGLEDELTIHCISSLPELFDGNPPFKGRGAVSFAMNVAEVLRILKLLSKYY | not soluble
MYDTEIPYEGKISIYTYFCKECGYRKTEVYSDEKRDPKKITIRIENPDDLRIIVYRSRRADVYIPEMEASIDSAEYSNGEITTIEGIIYRIGEKLDLLAADDQNNKKIASLRKRIDGIINGKFESFTLIIMDESGKSVVHS | not soluble
MEIGVPKEIKNQEFRVGLSPSSVRTLVEAGHTVFIETQAGIGAGFADQDYVQAGAQVVPSAKDAWSREMVVKVKEPLPAEYDLMQKDQLLFTYLHLAAARELTEQLMRVGLTAIAYETVELPNRSLPLLTPMSIIAGRLSVQFGARFLERQQGGRGVLLGGVPGVKPGKVVILGGGVVGTEAAKMAVGLGAQVQIFDINVERLSYLETLFGSRVELLYSNSAEIETAVAEADLLIGAVLVPGRRAPILVPASLVEQMRTGSVIVDVAVDQGGCVETLHPTSHTQPTYEVFGVVHYGVPNMPGAVPWTATQALNNSTLPYVVKLANQGLKALETDDALAKGLNVQAHRLVHPAVQQVFPDLA | soluble
MTETYVLAESPEFYQDNVTDYTGQISSSDITNIQAAIDDVKASEQKVIFVVFLSSFDGVDPETWTQQALQANGGGNVLIYALAPEERQYGIQGGTQWTDAELDAANNAAFQALSQEDWAGSALALAESVGSSSSSSSGSSSLEHHHHHH | soluble
NEKFRPEMLQGKKVIVTGASKGIGREIAYHLAKMGAHVVVTARSKEALQKVVARCLELGAASAHYIAGSMEDMTFAEEFVAEAGNLMGGLDMLILNHVLYNRLTFFHGEIDNVRKSMEVNFHSFVVLSVAAMPMLMQSQGSIAVVSSVAGKITYPLIAPYSASKFALDGFFSTLRSEFLVNKVNVSITLCILGLIDTETAIKATSGIYLGPASPKEECALEIIKGTALRQDEMYYVGSRWVPYLLGNPGRKIMEFLSAAEYNWDNVLSNEKLYGRWA | soluble
MLKYEHIAKQLNAFIHQSNFKPGDKLPNVTQLKERYQVSKSTIIKALGLLEQDGLIYQAQGSGIYVRNIADANRINVFKTNGFSKSLGEHRMTSKVLVFKEMATPPKSVQDELQLNADDTVYYLERLRFVDDDVLCIEYSYYHKEIVKYLNDDIAKGSIFDYLESNMKLRIGFSDIFFNVDKLTSSEASLLQLSTGEPCLRYHQTFYTMTGKPFDSSDIVFHYRHAQFYIPSKK | soluble
MRLPIFLLALSSASIVFSLDPVPEEYANVPKEFFEKFQAAIKSGDPVAVVDLFAPDDMLPVSGMIEAAQGIIKSFESYPTGIIERVRYEYGVIQINVRYYPNTPLLSKKTTIFKIKYENKWKGWTMVHFSDWM | not soluble
MGRKSQRKNATMFDSDDDTSSVSSSSTMPSERLLNPGMDEVTVLKDALLDQSLDALYEKREQALATIVDAFNSDLQYEFVEKKFATLLHQCLHCTKKGSTKETSLATHVIGLLALTVGLGDHAQEVLEESVTPLSQALKSGREILKITSILECLAVITFVGGNDPEQTEKSMQIIWQMIHPKLGSNVVATKPSPAVISAVVSSWAFLLTTVDRWTLGPKIFQETVTYLSTLLEKDDRSVRIAAGEALAVIYELGTLEKFAAEVKGSANGSVKEGGVSQEALMHMHGLKAKVTKQVRELSVEAGGKGSAKKDLNTQRNLFKDLVEFLEDGYAPETSTKVGGDYLQTSTWYQMIQLNYLKHFLGGGFIKHMQENEFLHDVFSFTPKKIGGGKLSNDEKRLFKSPNSALNKARTQFLAKQRMLAKNMNVGHYAATAMEEE | soluble
